Measured values: patent US20230295310A1 (ABCELLERA BIOLOGICS, published 2023)

B1: mAb 155 (antibody, V domains shown)
VH: EVQLVESGGGLVKTGGSLRLSCVASGFSFKKAWMNWVRQAPGKGLEWVGRIKRNTDGGTADYAAPVKGRFTLSRDDSKKTLFLQMNSLKTEDTAVYYCTTLDSSSYYVGYYYMDVWGKGTTVTVSS
VL: DIQMTQSPSSVSASVGDRVIITCRASQDINNWLAWYQQKPGKAPKLLIYTASSLQSGVPSRFSGSGSGTDFTLTIGSLQPEDFATYYCQQAHSLPISFGQGTRLDIK
B2: mAb 156 (antibody, V domains shown)
VH: EVQLVESGGGLVKTGGSLRLSCVASGFSFKKAWMNWVRQAPGKGLEWVGRIKRNTDGGTADYAAPVKGRFTLSRDDSKKTLFLQMNSLKTEDTAVYYCTTLDSSSYYVGYYYMDVWGKGTTVTVSS
VL: DIQMTQSPSSVSASVGDRVIITCRASQDINNWLAWYQQKAGKAPKLLIYTASSLQSGVPSRFSGSGSGTDFTLTIGSLQPEDFATYYCQQAHSLPITFGQGTRLEIK
B3: mAb 157 (antibody, V domains shown)
VH: EVQLVESGGGLVKTGGSLRLSCVASGFSFKKAWMNWVRQAPGKGLEWVGRIKRTADGGATDYAAPVKGRFTLSRDDSKNTLYLQMNSLKTEDTAVYYCTTLDSSSWYVGYYYMDVWGKGTTVTVSS
VL: DIHMTQAPSSVSASVGDRVTFTCRASQDINNWLAWYQQKPGKAPKLLIYTASSLQSGVPSRFSGSGSGTDFTLTISSLQPEDFATYYCQQAHSLPITFGQGTRLGIK
B4: mAb 158 (antibody, V domains shown)
VH: EVQLVESGGGLVQPGRSLRLSCAASGFTFADYTMHWVRQVPGKGLEWVSGISWNSGSVDYADSVKGRFTISRDNAKKTLYLQMNSLRAEDTALYYCAKDSSGYGHYYFYYLDVWGKGTTVTVSS
VL: EIVMTQSPATLSVSPGERATLSCRATQSVSSNLAWYQQKPGQAPRLLIYSTSTRATGIPARFSGSRSGTEFTLTISSLQSEDSAVYYCQQYNNWPHFGQGTRLEIK
B5: mAb 159 (antibody, V domains shown)
VH: EVQLVESGGGLVQPGRSLRLSCAASGFTFNGYTMHWVRQVPGKGLEWVSGISWNSGSVGYADSVKGRFTISRDNAKNSLFLQMNSLRAEDTALYYCAKDSSGYGHYYYYYMDVWGKGTTVTVSS
VL: EIVMTQSPATLSVSPGERATLSCRASQSVRNNLAWYQQKPGQAPRLLIYGASTRATGIPARFSGSGSGTEFTLTISSLQSEDFALYYCQLYNNWPHFGQGTRLEIK
B6: mAb 160 (antibody, V domains shown)
VH: EVQLVESGGGLVQPGRSLRLSCAVSGFTFNDYTMHWVRQVPGKGLEWVSGISWNSGSIGYADSVKGRFTISRDNAKNSLYLQMNSLRAEDTALYFCAKDSSGYGHYYYYYMDVWGRGTTVTVSS
VL: EIVMTQSPATLSVSPGERATLSCRASQSVRKNLAWYQQKPGQAPRLLIYGASTRATGIPARFSGSGSGTEFTLTISSLQSEDFAVYYCQLYNNWPHFGQGTRLEIK
B7: mAb 52 (antibody, V domains shown)
VH: QVQLVQSGAEVKKPGASVKVSCKASGYTFTSHDINWVRQATGQGLEWMGWLNPNSGKTGYAQKFQGRVTMARDTSMYTADMELSSLRFEDTAVYYCARVGHYDMWPGFFSFDYWGQGTLVTVSS
VL: DIQMTQSPSSLSASVGDRIIITCRASQDIRNDLGWYQQKPGKAPKRLIYAASSLQSGVPSRFSGSRSGTEFTLTISSLHPEDFATYYCLQHRSYPYTFGQGTNLEIK
B8: mAb 161 (antibody, V domains shown)
VH: EVQLVESGGGLVQPGRSLRLSCAASGITFADYTMHWVRQAPGKGLEWVSGISWNSGSIDYADSVKGRFTISRDNAKKTLYLQMNRLRAEDTALYYCAKDSSGYGHYYFYYLDVWGKGTTVTVSS
VL: EIVMTQSPATLSVSPGERATLSCRASQSVSNNLAWYQQKPGQAPRLLIYSTSTRATGIPARFSGSRSGTEFTLTISSLQSEDSAVYYCQQYNNWPHFGQGTRLEIK
B9: mAb 162 (antibody, V domains shown)
VH: EVQLVESGGGLVQPGRSLRLSCAASGFTFDNYAMHWVRQAPGKGLEWVSGISWNSGSIGYADSVKGRFTISRDNAKNSLYLELNSLRAEDTALYYCAKDSSGYGYYYNYYMDVWGKGTTVTVSS
VL: EIVMTQSPATLSVSPGERATLSCRASQSVRSNLAWYQQKPGQAPRLLIYGASTRATGIPAKFSGSGSGTEFTLTISSLQSEDFAVYYCQYYYNWPHFGQGTRLEIK
B10: mAb 163 (antibody, V domains shown)
VH: EVQLVESGGGLVKTGGSLRLSCVASGFSFKKAWMNWVRQVPGKGLEWVGRIKRNTDGGTADYAAPVKGRFTLSRDDSKKTLFLQMNSLKTEDTAVYYCTTLDSSSYYVGYYYMDVWGKGTTVTVSS
VL: DIQMTQSPSSVSASVGDRVIITCRASQDINNWLAWYQQKPGKAPKLLIYTASSLQSGVPSRFSGSGSGTDFTLTIGSLQPEDFATYYCQQAHSLPITFGQGTRLEIK
B11: mAb 164 (antibody, V domains shown)
VH: EVQLVESGGGLVKTGGSLRLSCVASGFSFKKAWMNWVRQAPGKGLEWVGRIKRNTDGGTADYAAPVKGRFTLSRDDSKKTLFLQMNSLKTEDTAVYYCTTLDSSSYYVGYYYMDVWGKGTTVTVSS
VL: DIQMTQSPSSVSASVGDRVTITCRASQDIKNWLAWYQQKPGKAPKLLIYTASSLQSGVPSRFSGSGSGTDFTLTIGSLQPEDFATYYCQQAHSLPITFGQGTRLEIK
B12: mAb 165 (antibody, V domains shown)
VH: EVQLVESGGGLVKTGGSLRLSCVASGFSFKKAWMNWVRQAPGKGLEWVGRIKRNTDGGTADYAAPVKGRFTLSRDDSKRTLYLQMNSLKTEDTAVYYCTTLDSSSRYVGYYYMDVWGKGTTVTVSS
VL: DIQMTQSPSSVSASVGDRVIITCRASQDINNWLAWYQQKPGKVPKLLIYTASSLQSGVPSRFSGSGSGTDFTLTIGSLQPEDFATYYCQQAHSLPITFGQGTRLEIK
B13: mAb 166 (antibody, V domains shown)
VH: EVQLVESGGGLVKTGGSLRLSCVASGFSFKKAWMNWVRQAPGRGLEWVGRIKRNTDGGTTDYAAPVKGRFTLSRDDSKNMLYLQMNSLKTEDTAVYYCTTLDSSSLYVGYYYMDVWGKGTTVTVSS
VL: DIQMTQSPSSVSASVGDRVTITCRASQDINNWLAWYQQKPGKAPKLLIYTASSLQSGVPSRFSGSGSGTDFTLTISSLQPEDFATYFCQQAHSLPITFGQGTRLEIT
B14: mAb 167 (antibody, V domains shown)
VH: EVHLVESGGGLVQPGRSLRLSCAASGFTFDDYAMHWVRQAPGKGLEWVSGISWNSGTIGYADSVKGRFTISRDNAKNSLYLEMNSLRAEDTALYYCAKDSSGYGHYYHYYIDVWGTGTTVTVSS
VL: EIVMTQSPATLSVSPGGRATLSCRASQSVGSNLAWYQQKPGQAPRLLIYDASTRATGIPARFRGSGSGTEFTLTISGLQSEDFAVYYCQLYYNWPHFGQGTRLEIK
B15: mAb 169 (antibody, V domains shown)
VH: EVQLVESGGGLVKTGGSLRLSCVASGFSFKKAWMNWVRQAPGKGLEWVGRIKRNTDGGTADYAAPVKGRFTLSRDDSKKTLFLQMNSLKTEDTAVYYCTTLDSSSYYVGYYYMDVWGKGTTVTVSS
VL: DIQMTQSPSSVSASVGDRVIITCRASQDINNWLAWYQQKPGKAPKLLIYTASSLQSGVPSRFSGSGSGTDFILTIGSLQPEDFATYYCQQAHSLPITFGQGTRLEIK
B16: mAb 170 (antibody, V domains shown)
VH: EVQLVESGGGLVRPGRSLRLSCAASGFTFDDYTMHWVRQAPGKGLEWVSGISWNSGSIGYADSVKGRFTISRDNAKNSLYLQMNSLRAEDTALYYCSKDSSGYGYYLNYSLDVWGKGTTVTVSS
VL: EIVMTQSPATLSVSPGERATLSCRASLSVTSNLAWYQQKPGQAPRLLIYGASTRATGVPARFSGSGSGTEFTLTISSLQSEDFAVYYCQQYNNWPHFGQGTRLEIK
B17: mAb 171 (antibody, V domains shown)
VH: EVQLVESGGGLVQPGRSLRLSCAASGFTFADYTMHWVRQAPGQGLEWVSGISWNSGSIDYADSVKGRFIISRDNAKKTLYLQMNSLRAEDTALYYCAKDSSGYGHYYFYYLDVWGKGTTVTVSS
VL: EIVMTQSPATLSVSPGERATLSCRASQSVSSNLAWYQQKPGQAPRLLIYSTSTRATGIPARFSGSRSGTEFTLTISSLQSEDSAVYYCQQYNNWPHFGQGTRLEIK
B18: mAb 53 (antibody, V domains shown)
VH: QVQLVQSGAEVKKPGASVKVSCKASGYTFTSYDINWVRQATGQGLEWMGWMNPKSGKTGYAQKFQGRITMTRNTPISTVYMDLSSLRSEDTAVYYCAREGHYDFWTGYYSFDYWGQGTLVTVSS
VL: DIQMTQSPSSLSASVGDRVTITCRASQGIRNDLGWYQQTPGKAPKRLIYAASSLQSGVPSRFSGSGSGTEFTLTISSLQPEDFATYYCLQHYSYPYTFGQGTKLEIK
B19: mAb 172 (antibody, V domains shown)
V domain 1: EVQLVESGGGLVQPGRSLRLSCTTSGFTFDDYTMHWVRQVPGKGLEWVSDISWNSGSVGYADSVKGRFTISRDNAKNSLYLQMNSLRAEDTALYYCVKDSSGYGHYFHYYMDVWGKGTTVTVSS
V domain 2: EVQLVESGGGLVQPGRSLRLSCTTSGFTFDDYTMHWVRQVPGKGLEWVSDISWNSGSVGYADSVKGRFTISRDNAKNSLYLQMNSLRAEDTALYYCVKDSSGYGHYFHYYMDVWGKGTTVTVSS

target: human CD3 (human, UniProt P07766 23-207; P04234 22-171; P09693 23-182); test: cell-based or functional assay
Sequence (P07766 23-207, chain 1 of 3): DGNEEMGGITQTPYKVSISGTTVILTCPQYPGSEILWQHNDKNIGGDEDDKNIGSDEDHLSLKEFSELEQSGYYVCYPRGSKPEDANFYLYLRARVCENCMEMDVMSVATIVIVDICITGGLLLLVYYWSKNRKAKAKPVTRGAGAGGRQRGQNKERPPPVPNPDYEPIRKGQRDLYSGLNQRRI
Sequence (P04234 22-171, chain 2 of 3): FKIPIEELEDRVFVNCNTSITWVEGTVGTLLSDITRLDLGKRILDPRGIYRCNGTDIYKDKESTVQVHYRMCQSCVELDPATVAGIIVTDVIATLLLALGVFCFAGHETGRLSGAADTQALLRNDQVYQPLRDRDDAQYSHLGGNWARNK
Sequence (P09693 23-182, chain 3 of 3): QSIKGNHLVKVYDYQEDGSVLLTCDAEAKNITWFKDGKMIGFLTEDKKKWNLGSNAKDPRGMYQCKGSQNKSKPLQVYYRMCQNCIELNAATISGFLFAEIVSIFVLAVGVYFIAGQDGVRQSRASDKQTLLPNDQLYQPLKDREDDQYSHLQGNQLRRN

Question: With B1 as the binder, how does the “CD4 EC50 (nM); CD69/CD25 on human T cells, plate-coated antibody” value (from here on “CD4 EC50 (nM); CD69/CD25”) read?
Answer: 6.25 nM

Question: And the “CD8 EC50 (nM); CD69/CD25 on human T cells, plate-coated antibody” value (from here on “CD8 EC50 (nM); CD69/CD25”)?
Answer: 6.29 nM

Question: What does the source list for B2?
Answer: CD4 EC50 (nM); CD69/CD25 on human T cells, plate-coated antibody: 6.25 nM; CD8 EC50 (nM); CD69/CD25 on human T cells, plate-coated antibody: 6.25 nM

Question: For B3, which “CD4 EC50 (nM); CD69/CD25” value is on record?
Answer: 6.42 nM

Question: What about the “CD8 EC50 (nM); CD69/CD25” value of the same binder?
Answer: 6.57 nM

Question: What does the source list for B4?
Answer: CD4 EC50 (nM); CD69/CD25 on human T cells, plate-coated antibody: 6.67 nM; CD8 EC50 (nM); CD69/CD25 on human T cells, plate-coated antibody: 6.62 nM

Question: What does the source list for B5?
Answer: CD4 EC50 (nM); CD69/CD25 on human T cells, plate-coated antibody: 12 nM; CD8 EC50 (nM); CD69/CD25 on human T cells, plate-coated antibody: 11.9 nM

Question: Which results are given for B6?
Answer: CD4 EC50 (nM); CD69/CD25 on human T cells, plate-coated antibody: 6.95 nM; CD8 EC50 (nM); CD69/CD25 on human T cells, plate-coated antibody: 8.47 nM

Question: Which results are given for B7?
Answer: CD4 EC50 (nM); CD69/CD25 on human T cells, plate-coated antibody: 8.79 nM; CD8 EC50 (nM); CD69/CD25 on human T cells, plate-coated antibody: 9.48 nM

Question: For B8, which “CD4 EC50 (nM); CD69/CD25” value is on record?
Answer: 6.76 nM

Question: What about the “CD8 EC50 (nM); CD69/CD25” value of the same binder?
Answer: 7.89 nM

Question: B9 was tested. Which “CD4 EC50 (nM); CD69/CD25” value did it give?
Answer: 12.6 nM

Question: And the “CD8 EC50 (nM); CD69/CD25” value?
Answer: 12.7 nM

Question: Which results are given for B10?
Answer: CD4 EC50 (nM); CD69/CD25 on human T cells, plate-coated antibody: 6.3 nM; CD8 EC50 (nM); CD69/CD25 on human T cells, plate-coated antibody: 6.99 nM

Question: What does the source list for B11?
Answer: CD4 EC50 (nM); CD69/CD25 on human T cells, plate-coated antibody: 6.84 nM; CD8 EC50 (nM); CD69/CD25 on human T cells, plate-coated antibody: 6.62 nM

Question: What does the source list for B12?
Answer: CD4 EC50 (nM); CD69/CD25 on human T cells, plate-coated antibody: 6.48 nM; CD8 EC50 (nM); CD69/CD25 on human T cells, plate-coated antibody: 6.57 nM

Question: How did the “CD4 EC50 (nM); CD69/CD25” value turn out when B13 was run?
Answer: 10.5 nM

Question: And the “CD8 EC50 (nM); CD69/CD25” value?
Answer: 10.6 nM

Question: What does the source list for B14?
Answer: CD4 EC50 (nM); CD69/CD25 on human T cells, plate-coated antibody: 6.3 nM; CD8 EC50 (nM); CD69/CD25 on human T cells, plate-coated antibody: 6.36 nM

Question: For B15, which “CD4 EC50 (nM); CD69/CD25” value is on record?
Answer: 6.49 nM

Question: And the “CD8 EC50 (nM); CD69/CD25” value?
Answer: 6.67 nM

Question: With B16 as the binder, how does the “CD4 EC50 (nM); CD69/CD25” value read?
Answer: 14.6 nM

Question: And the “CD8 EC50 (nM); CD69/CD25” value?
Answer: 15.1 nM

Question: For B17, which “CD4 EC50 (nM); CD69/CD25” value is on record?
Answer: 6.86 nM

Question: What about the “CD8 EC50 (nM); CD69/CD25” value of the same binder?
Answer: 6.71 nM

Question: How did the “CD4 EC50 (nM); CD69/CD25” value turn out when B18 was run?
Answer: 18.3 nM

Question: And the “CD8 EC50 (nM); CD69/CD25” value?
Answer: 18.3 nM

Question: For B19, which “CD4 EC50 (nM); CD69/CD25” value is on record?
Answer: 23.2 nM

Question: What about the “CD8 EC50 (nM); CD69/CD25” value of the same binder?
Answer: 22.9 nM
